Assays:
Experiment in all cases: phage ELISA
recombinant mouse TfR2 = molecular target: T1, recombinant mouse TfR2 (mouse, UniProt Q9JKX3 103-798, limits assumed)
T1 construct: Negative control protein
T1 sequence (looked up): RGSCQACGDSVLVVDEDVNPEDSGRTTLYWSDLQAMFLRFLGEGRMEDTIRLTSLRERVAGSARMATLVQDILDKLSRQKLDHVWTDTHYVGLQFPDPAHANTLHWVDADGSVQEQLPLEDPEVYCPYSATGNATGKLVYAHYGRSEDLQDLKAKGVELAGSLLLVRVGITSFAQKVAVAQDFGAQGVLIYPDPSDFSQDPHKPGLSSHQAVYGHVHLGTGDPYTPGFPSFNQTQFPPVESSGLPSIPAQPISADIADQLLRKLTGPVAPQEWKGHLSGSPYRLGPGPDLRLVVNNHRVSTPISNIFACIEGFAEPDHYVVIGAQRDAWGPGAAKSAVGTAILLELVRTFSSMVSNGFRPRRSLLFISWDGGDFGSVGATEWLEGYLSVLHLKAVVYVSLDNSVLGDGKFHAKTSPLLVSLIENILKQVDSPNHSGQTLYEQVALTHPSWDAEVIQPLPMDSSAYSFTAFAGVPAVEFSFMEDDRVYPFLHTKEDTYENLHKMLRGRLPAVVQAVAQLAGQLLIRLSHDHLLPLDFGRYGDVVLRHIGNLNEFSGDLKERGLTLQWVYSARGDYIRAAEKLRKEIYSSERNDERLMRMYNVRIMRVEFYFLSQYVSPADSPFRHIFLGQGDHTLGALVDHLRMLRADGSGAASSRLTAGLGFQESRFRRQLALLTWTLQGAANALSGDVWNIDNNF

[1] = molecular target: T2, recombinant human TfR1 (transferrin receptor 1) (human, UniProt P02786 89-760)
T2 construct: Bought recombinant His-tagged protein; also called hTfR1

[2] = molecular target: T3, recombinant mouse TfR1 (transferrin receptor 1) (mouse, UniProt Q62351 89-763)
T3 construct: Bought recombinant His-tagged protein; also called mTfR1

human serum albumin = molecular target: T4, human serum albumin (human, UniProt P02768 25-609)
T4 construct: Negative control protein; also called HSA
T4 sequence (P02768 25-609 limits assumed): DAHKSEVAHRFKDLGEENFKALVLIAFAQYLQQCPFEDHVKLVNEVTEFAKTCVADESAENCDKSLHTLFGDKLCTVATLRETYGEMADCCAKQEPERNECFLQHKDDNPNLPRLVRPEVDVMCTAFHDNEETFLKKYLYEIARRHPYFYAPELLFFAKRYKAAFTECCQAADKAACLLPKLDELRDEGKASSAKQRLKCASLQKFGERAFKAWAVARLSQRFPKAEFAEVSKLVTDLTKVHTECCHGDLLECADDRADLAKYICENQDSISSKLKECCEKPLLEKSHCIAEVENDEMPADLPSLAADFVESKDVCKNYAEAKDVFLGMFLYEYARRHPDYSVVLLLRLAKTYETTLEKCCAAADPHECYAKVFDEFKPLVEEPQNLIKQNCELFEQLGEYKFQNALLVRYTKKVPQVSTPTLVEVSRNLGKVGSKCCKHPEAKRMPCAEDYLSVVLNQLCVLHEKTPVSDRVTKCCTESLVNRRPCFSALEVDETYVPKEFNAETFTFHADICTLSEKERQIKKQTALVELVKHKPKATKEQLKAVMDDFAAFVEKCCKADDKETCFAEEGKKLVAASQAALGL

T3 sequence (Q62351 89-763 limits assumed): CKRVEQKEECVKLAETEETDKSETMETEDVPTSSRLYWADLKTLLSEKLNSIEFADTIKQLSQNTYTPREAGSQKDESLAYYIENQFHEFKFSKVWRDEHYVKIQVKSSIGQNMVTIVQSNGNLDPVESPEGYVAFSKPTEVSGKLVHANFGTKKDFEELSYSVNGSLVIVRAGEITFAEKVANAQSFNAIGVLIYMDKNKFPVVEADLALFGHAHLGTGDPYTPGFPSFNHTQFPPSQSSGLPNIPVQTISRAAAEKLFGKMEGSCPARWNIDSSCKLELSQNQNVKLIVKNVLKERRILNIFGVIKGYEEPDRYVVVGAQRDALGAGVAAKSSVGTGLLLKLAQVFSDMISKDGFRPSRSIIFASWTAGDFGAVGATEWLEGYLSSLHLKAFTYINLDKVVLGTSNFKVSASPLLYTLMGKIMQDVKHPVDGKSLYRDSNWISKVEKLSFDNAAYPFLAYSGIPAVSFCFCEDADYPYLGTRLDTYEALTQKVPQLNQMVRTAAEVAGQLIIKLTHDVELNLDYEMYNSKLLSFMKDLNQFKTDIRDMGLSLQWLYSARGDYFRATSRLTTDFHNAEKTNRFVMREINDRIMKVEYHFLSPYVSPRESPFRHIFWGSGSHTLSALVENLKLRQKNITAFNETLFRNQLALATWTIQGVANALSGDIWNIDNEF
T2 sequence (P02786 89-760 limits assumed): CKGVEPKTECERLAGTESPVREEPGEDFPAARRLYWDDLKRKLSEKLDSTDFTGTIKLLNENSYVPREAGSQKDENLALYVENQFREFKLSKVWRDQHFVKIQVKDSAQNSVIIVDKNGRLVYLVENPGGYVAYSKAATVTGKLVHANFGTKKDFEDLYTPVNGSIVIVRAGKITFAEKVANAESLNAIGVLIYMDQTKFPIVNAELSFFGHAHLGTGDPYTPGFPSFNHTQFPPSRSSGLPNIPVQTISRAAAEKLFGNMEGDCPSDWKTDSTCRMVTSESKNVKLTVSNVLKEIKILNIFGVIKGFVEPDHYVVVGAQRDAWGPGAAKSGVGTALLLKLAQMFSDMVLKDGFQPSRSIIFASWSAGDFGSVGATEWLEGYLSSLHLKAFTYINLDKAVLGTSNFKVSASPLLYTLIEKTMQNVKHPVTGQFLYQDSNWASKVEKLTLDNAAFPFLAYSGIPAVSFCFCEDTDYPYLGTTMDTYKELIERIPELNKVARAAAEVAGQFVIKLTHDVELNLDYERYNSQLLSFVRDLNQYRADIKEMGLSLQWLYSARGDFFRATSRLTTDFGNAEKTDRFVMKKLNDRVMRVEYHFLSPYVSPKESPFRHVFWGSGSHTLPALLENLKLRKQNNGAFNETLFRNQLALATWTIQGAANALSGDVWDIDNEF

Row | Binder | binding result (recombinant mouse TfR2) | binding result [1] | binding result [2] | binding result (human serum albumin)
1 | SEQ ID NO 41 (VNAR clone displayed on phage) (VNAR, shark VNAR domain on M13 phage; coat-protein fusion not described) VNAR: ARVDQTPQTITKETGESLTINCVLRDSNCALSSTLWYRTKSGSRNEESISKGGRYVETVNSGSKSFSLKINDLTVEDSGTYRCKVCRQCCVATCDDLSLLCDVYGDGTAVTVNA | no binding | binds | binds | –
2 | SEQ ID NO 5 (VNAR clone displayed on phage) (VNAR, shark VNAR domain on M13 phage; coat-protein fusion not described) VNAR: ARVDQTPQTITKETGESLTINCVLRDSNCALSSTYWYRKKSGSTNEENISKGGRYVETVNSGSKSFSLKINDLTVEDSGTYRCNVQKGQHLQCHVAVQDVYGGGTAVTVNA | – | binds | binds | no binding
3 | SEQ ID NO 36 (VNAR clone displayed on phage) (VNAR, shark VNAR domain on M13 phage; coat-protein fusion not described) VNAR: ARVDQTPQTITKETGESLTINCVLRDSNCDLSRTYWYRKKSGSTNEESISKGGRYVETVNSGSKSFSLRINDLVVEDSGTYRCNVHSVSCIQRLDVYGGGTVVTVNA | no binding | binds | binds | –
4 | SEQ ID NO 3 (VNAR clone displayed on phage) (VNAR, shark VNAR domain on M13 phage; coat-protein fusion not described) VNAR: ARVDQTPQTITKETGESLTINCVLRDNNCALSTTYWYRKKSGSTNEENISKGGRYVETVNSGSKSFSLKINDLTVEDSGTYRCNVTGYFRSTCLWRDVYGGGTAVTVNA | – | binds | binds | no binding
5 | SEQ ID NO 37 (VNAR clone displayed on phage) (VNAR, shark VNAR domain on M13 phage; coat-protein fusion not described) VNAR: ARVDQTPQTITKETGESLTINCVLRDSNCALSSTLWYRTKSGSRNEESISKGGRYVETVNSGSKSFSLRINDLTVKDSGTYRCNVQQGVVATCTSKRCDVYGGGTAVTVNA | no binding | binds | binds | –
6 | SEQ ID NO 40 (VNAR clone displayed on phage) (VNAR, shark VNAR domain on M13 phage; coat-protein fusion not described) VNAR: ARVDQTPQTITKETGESLTINCVLRDSNCALSSTLWYRTKSGSRNEESISKGGRYVETVNSGSKSFSLRINDLTVEDSGTYRCNVQFSYNCNFWKDVYGGGTDVTVNA | no binding | binds | binds | –
7 | SEQ ID NO 4 (VNAR clone displayed on phage) (VNAR, shark VNAR domain on M13 phage; coat-protein fusion not described) VNAR: ARVDQTPQTITKETGESLTINCVLRDSNCALSSTYWYRKKSGSTNEENISKGGRYVETVNSGSKSFSLKINDLTVEDSGTYRCNVQFTAALWCEAVLDVYGGGTVVTVNA | – | binds | binds | no binding
8 | SEQ ID NO 8 (VNAR clone displayed on phage) (VNAR, shark VNAR domain on M13 phage; coat-protein fusion not described) VNAR: ARVDQTPQTITKETGESLTINCVLRDSNCELSSTYWYRKKSGSTNEARISKGGRYVETVNSGSKSFSLRINDLTVEDSGTYRCNVQYFLCHFVGDVYGDGTAVTVNA | – | binds | binds | no binding
9 | SEQ ID NO 9 (VNAR clone displayed on phage) (VNAR, shark VNAR domain on M13 phage; coat-protein fusion not described) ARVDQTPQTITKETGESLTINCVLRDSNCALPSTYWYRKKSGSTNEARISKGGRYVETVNSGSKSFSLRINDLTVEDSGTIDARYRLSASAVLYQSYVDVYGGGTAVTVNA | – | binds | binds | no binding
10 | SEQ ID NO 38 (VNAR clone displayed on phage) (VNAR, shark VNAR domain on M13 phage; coat-protein fusion not described) VNAR: ARVDQTPQTITKETGESLTINCVLRDNNCALSSTLWYRTKSGSRNEESISKGGRYVETVNSGSKSFSLRINDLTVEDSGTYRCKVWQDSLSQPCESGCLDVYGGGTAVTVNA | no binding | binds | binds | –
11 | SEQ ID NO 6 (VNAR clone displayed on phage) (VNAR, shark VNAR domain on M13 phage; coat-protein fusion not described) VNAR: ARVDQTPQTITKETGESLTINCVLRDSNCALSSTYWYRKKSDSTNEESISKGGRYVETVNSGSKSFSLRINDLTVEDSGTYRCNVQWWLRCGYFKDVYGGGTVVTVNA | – | binds | binds | no binding
